Earlier results as cited in patent publication US6913917B2, “Anti-cocaine catalytic antibody” (priority 1996, dated 2005).

Test system: toxicity due to intraperitoneal cocaine
Settings: intraperitoneal administration, mouse; cited from earlier work

B1: butyrylcholinesterase: the enzyme butyrylcholinesterase; plasma enzyme that deactivates cocaine (protein, UniProt P06276 29-602, looked up)
Cholinesterase: EDDIIIATKNGKVRGMNLTVFGGTVTAFLGIPYAQPPLGRLRFKKPQSLTKWSDIWNATKYANSCCQNIDQSFPGFHGSEMWNPNTDLSEDCLYLNVWIPAPKPKNATVLIWIYGGGFQTGTSSLHVYDGKFLARVERVIVVSMNYRVGALGFLALPGNPEAPGNMGLFDQQLALQWVQKNIAAFGGNPKSVTLFGESAGAASVSLHLLSPGSHSLFTRAILQSGSFNAPWAVTSLYEARNRTLNLAKLTGCSRENETEIIKCLRNKDPQEILLNEAFVVPYGTPLSVNFGPTVDGDFLTDMPDILLELGQFKKTQILVGVNKDEGTAFLVYGAPGFSKDNNSIITRKEFQEGLKIFFPGVSEFGKESILFHYTDWVDDQRPENYREALGDVVGDYNFICPALEFTKKFSEWGNNAFFYYFEHRSSKLPWPEWMGVMHGYEIEFVFGLPLERRDNYTKAEEILSRSIVKRWANFAKYGNPNETQNNSTSWPVFKSTEQKYLTLNTESTRIMTKLRAQQCRFWTSFFPKVLEMTGNIDEAEWEWKAGFHRWNNYMMDWKNQFNDYTSKKESCVGL
Question: For B1, which “effect on toxicity due to intraperitoneal cocaine” value is on record?
Answer: Its value is “inhibit toxicity”.
